These are literature values, as cited in paper PMC8714859.

The target of one data set is M-CSF (Homo sapiens) (UniProt P09603).
In data set [1] the target is interleukin-34 (Homo sapiens) (UniProt Q6ZMJ4).
UniProt Q6ZMJ4, sequence (Q6ZMJ4 21-242): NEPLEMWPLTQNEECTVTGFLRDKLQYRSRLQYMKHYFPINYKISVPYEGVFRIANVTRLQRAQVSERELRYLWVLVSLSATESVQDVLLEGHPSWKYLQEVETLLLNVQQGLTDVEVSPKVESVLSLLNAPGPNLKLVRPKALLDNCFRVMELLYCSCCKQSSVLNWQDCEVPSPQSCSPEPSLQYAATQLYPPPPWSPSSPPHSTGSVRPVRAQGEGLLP

UniProt P09603, sequence (P09603 33-190): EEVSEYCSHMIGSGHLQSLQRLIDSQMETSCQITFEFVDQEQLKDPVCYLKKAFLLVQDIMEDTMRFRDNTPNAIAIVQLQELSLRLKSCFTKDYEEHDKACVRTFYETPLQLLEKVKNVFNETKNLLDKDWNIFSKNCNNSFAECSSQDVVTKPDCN

For M-CSF receptor (from UniProt P07333), the Kd (commonly the constant that tells how readily two partners part at equilibrium) is 0.034 nM with M-CSF (Homo sapiens) and 0.001 nM in data set [1].
